This assay deals with T1, IL-18R on HEK-Blue IL18R reporter cells (InvivoGen, #hkb-hmi118) (UniProt Q13478 19-541; O95256 20-599, limits assumed).
T1 sequence (looked up) 1: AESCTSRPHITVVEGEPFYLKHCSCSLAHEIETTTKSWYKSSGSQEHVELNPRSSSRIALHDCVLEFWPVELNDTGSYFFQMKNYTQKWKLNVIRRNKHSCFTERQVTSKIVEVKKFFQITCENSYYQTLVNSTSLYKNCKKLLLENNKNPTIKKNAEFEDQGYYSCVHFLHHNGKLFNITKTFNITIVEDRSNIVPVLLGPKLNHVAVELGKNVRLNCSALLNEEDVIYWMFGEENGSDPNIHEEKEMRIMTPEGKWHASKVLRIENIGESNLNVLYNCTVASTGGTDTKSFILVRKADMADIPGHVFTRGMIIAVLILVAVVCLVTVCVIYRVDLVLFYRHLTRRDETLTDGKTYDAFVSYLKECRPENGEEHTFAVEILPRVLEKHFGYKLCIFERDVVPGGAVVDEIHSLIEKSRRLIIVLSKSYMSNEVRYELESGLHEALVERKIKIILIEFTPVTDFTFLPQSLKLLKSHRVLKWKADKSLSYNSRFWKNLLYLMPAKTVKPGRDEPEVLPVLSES
T1 sequence (looked up) 2: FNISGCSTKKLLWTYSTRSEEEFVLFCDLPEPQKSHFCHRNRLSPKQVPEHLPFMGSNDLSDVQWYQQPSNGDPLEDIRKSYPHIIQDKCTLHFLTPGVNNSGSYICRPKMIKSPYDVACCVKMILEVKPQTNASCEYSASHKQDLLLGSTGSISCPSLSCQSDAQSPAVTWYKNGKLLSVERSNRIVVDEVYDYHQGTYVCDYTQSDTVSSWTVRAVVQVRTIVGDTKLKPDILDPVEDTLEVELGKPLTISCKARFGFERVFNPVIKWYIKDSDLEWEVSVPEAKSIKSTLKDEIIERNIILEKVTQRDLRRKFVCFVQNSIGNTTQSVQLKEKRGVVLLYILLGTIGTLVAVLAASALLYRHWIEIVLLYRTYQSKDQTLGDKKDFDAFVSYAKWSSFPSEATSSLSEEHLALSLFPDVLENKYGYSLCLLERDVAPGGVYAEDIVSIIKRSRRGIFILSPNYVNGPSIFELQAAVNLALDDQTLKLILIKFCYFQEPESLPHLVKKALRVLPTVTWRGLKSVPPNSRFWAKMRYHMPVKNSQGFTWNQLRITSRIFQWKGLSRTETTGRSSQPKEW
Description: cell-based or functional assay.

The values that follow come from patent US20250186597A1 (BRIGHT PEAK THERAPEUTICS, published 2025).

Changes are numbered by the printed parent chain. In names and notes the source's numbering stands. Several values for one entry are separate records, joined by “and”; a condition that tells them apart may be missing. Equal entries are not always repeated.

B1: IL-18 polypeptide of SEQ ID NO: 34 (E06K, K53A, S55A) (ligand)
chain: YFGKLKSKLSVIRNLNDQVLFIDQGNRPLFEDMTDSDCRDNAPRTIFIISMYADAQPRGMAVTISVKCEKISTLSCENKIISFKEMNPPDNIKDTKSDIIFFQRSVPGHDNKMQFESSSYEGYFLACEKERDLFKLILKKEDELGDRSIMFTVQNED
Take B1: the “EC50, HEK-Blue IL18R reporter assay” value stood at 272 pM.

B2: IL-18 polypeptide C145 (V11I, C38A, K53A, S55A, C76A, C127A) (ligand)
chain: B1 chain with K6E, V11I, C38A, C76A, C127A
On to B2, for which the “EC50, HEK-Blue IL18R reporter assay” value came out at 3.63 pM.

B3: IL-18 polypeptide C155 (V11I, C38A, D40A, K53A, C76A, C127A) (ligand)
chain: B1 chain with K6E, V11I, C38A, D40A, A55S, C76A, C127A
As for B3, the “EC50, HEK-Blue IL18R reporter assay” value came to 0.52 pM.

B4: IL-18 polypeptide C143 (V11I, C38A, K53A, C76A, C127A) (ligand)
chain: B1 chain with K6E, V11I, C38A, A55S, C76A, C127A
Turning to B4, the “EC50, HEK-Blue IL18R reporter assay” value was found to be 0.98 pM.

B5: IL-18 polypeptide C164 (V11I, C38A, S55H, C76A, C127A) (ligand)
chain: B1 chain with K6E, V11I, C38A, A53K, A55H, C76A, C127A
As for B5, the “EC50, HEK-Blue IL18R reporter assay” value is 3.14 pM.

B6: IL-18 polypeptide C156 (V11I, C38A, N41A, K53A, C76A, C127A) (ligand)
chain: B1 chain with K6E, V11I, C38A, N41A, A55S, C76A, C127A
With B6, the “EC50, HEK-Blue IL18R reporter assay” value is 11.7 pM.

B7: IL-18 polypeptide C166 (V11I, C38A, S55T, C76A, C127A) (ligand)
chain: B1 chain with K6E, V11I, C38A, A53K, A55T, C76A, C127A
With B7, the “EC50, HEK-Blue IL18R reporter assay” value stood at 4.73 pM.

B8: IL-18 polypeptide C149 (V11I, E31A, C38A, K53A, C76A, C127A) (ligand)
chain: B1 chain with K6E, V11I, E31A, C38A, A55S, C76A, C127A
In the case of B8, the “EC50, HEK-Blue IL18R reporter assay” value came out at 6.6 pM.

B9: IL-18 polypeptide C158 (V11I, C38A, K53A, C76A, G108A, C127A) (ligand)
chain: B1 chain with K6E, V11I, C38A, A55S, C76A, G108A, C127A
Consider B9, for which the “EC50, HEK-Blue IL18R reporter assay” value came out at 15.6 pM.

B10: IL-18 polypeptide C162 (K8E, V11I, C38A, C76A, Q103R, C127A) (ligand)
chain: B1 chain with K6E, K8E, V11I, C38A, A53K, A55S, C76A, Q103R, C127A
As for B10, the “EC50, HEK-Blue IL18R reporter assay” value was 2.3 pM.

B11: IL-18 polypeptide C160 (V11I, C38A, K53A, C76A, D110A, C127A) (ligand)
chain: B1 chain with K6E, V11I, C38A, A55S, C76A, D110A, C127A
In the case of B11, the “EC50, HEK-Blue IL18R reporter assay” value was found to be 2.02 pM.

B12: IL-18 polypeptide C148 (F2A, V11I, C38A, K53A, C76A, C127A) (ligand)
chain: B1 chain with F2A, K6E, V11I, C38A, A55S, C76A, C127A
Regarding B12, the “EC50, HEK-Blue IL18R reporter assay” value is 7.28 pM.

B13: IL-18 polypeptide C144 (V11I, C38A, K53A, T63A, C76A, C127A) (ligand)
chain: B1 chain with K6E, V11I, C38A, A55S, T63A, C76A, C127A
As for B13, the “EC50, HEK-Blue IL18R reporter assay” value was 0.17 pM.

B14: IL-18 polypeptide C161 (K8R, V11I, C38A, C76A, Q103E, C127A) (ligand)
chain: B1 chain with K6E, K8R, V11I, C38A, A53K, A55S, C76A, Q103E, C127A
For B14, the “EC50, HEK-Blue IL18R reporter assay” value came to 2.01 pM.

B15: IL-18 polypeptide of SEQ ID NO: 59 (E6K, C38A, K53A) (ligand)
chain: B1 chain with C38A, A55S
For B15, the “EC50, HEK-Blue IL18R reporter assay” value worked out at 0.268 pM.

B16: IL-18 polypeptide C159 (V11I, C38A, K53A, C76A, H109A, C127A) (ligand)
chain: B1 chain with K6E, V11I, C38A, A55S, C76A, H109A, C127A
Consider B16, for which the “EC50, HEK-Blue IL18R reporter assay” value was determined as 19.5 pM.

B17: IL-18 polypeptide C147 (V11I, C38A, K53A, D54A, C76A, C127A) (ligand)
chain: B1 chain with K6E, V11I, C38A, D54A, A55S, C76A, C127A
Turning to B17, the “EC50, HEK-Blue IL18R reporter assay” value came out at 1 pM.

B18: IL-18 polypeptide of SEQ ID NO: 42 (E06K, K53A, S55A, T63A) (ligand)
chain: B1 chain with T63A
B18: the “EC50, HEK-Blue IL18R reporter assay” value was 0.79 pM.

B19: IL-18 polypeptide of SEQ ID NO: 60 (E6K, C38Q, K53A) (ligand)
chain: B1 chain with C38Q, A55S
With B19, the “EC50, HEK-Blue IL18R reporter assay” value came out at 0.203 pM.

B20: IL-18 polypeptide of SEQ ID NO: 62 (E6K, C38A, K53A, C127A) (ligand)
chain: B1 chain with C38A, A55S, C127A
With B20, the “EC50, HEK-Blue IL18R reporter assay” value turned out to be 0.17 pM.

B21: IL-18 polypeptide C165 (V11I, C38A, S55R, C76A, C127A) (ligand)
chain: B1 chain with K6E, V11I, C38A, A53K, A55R, C76A, C127A
As for B21, the “EC50, HEK-Blue IL18R reporter assay” value was 1.91 pM.

B22: IL-18 polypeptide C153 (V11I, D37A, C38A, K53A, C76A, C127A) (ligand)
chain: B1 chain with K6E, V11I, D37A, C38A, A55S, C76A, C127A
As to B22, the “EC50, HEK-Blue IL18R reporter assay” value is 14.1 pM.

B23: IL-18 polypeptide C146 (SEQ ID NO: 68; V11I, C38A, M51G, K53A, C76A, C127A) (ligand)
chain: B1 chain with K6E, V11I, C38A, M51G, A55S, C76A, C127A
On to B23, for which the “EC50, HEK-Blue IL18R reporter assay” value turned out to be 0.8 pM.

B24: IL-18 polypeptide C152 (V11I, S36A, C38A, K53A, C76A, C127A) (ligand)
chain: B1 chain with K6E, V11I, S36A, C38A, A55S, C76A, C127A
As to B24, the “EC50, HEK-Blue IL18R reporter assay” value was determined as 0.25 pM.

B25: IL-18 polypeptide C174 (K8L, E6K, V11I, C38A, K53A, T63A, C76A, C127A) (ligand)
chain: B1 chain with K8L, V11I, C38A, A55S, T63A, C76A, C127A
Regarding B25, the “EC50, HEK-Blue IL18R reporter assay” value stood at 0.29 pM.

B26: IL-18 polypeptide C177 (E6K, V11I, C38A, I49R, K53A, T63A, C76A, C127A) (ligand)
chain: B1 chain with V11I, C38A, I49R, A55S, T63A, C76A, C127A
On to B26, for which the “EC50, HEK-Blue IL18R reporter assay” value amounted to 0.04 pM.

B27: IL-18 polypeptide C176 (E6K, V11I, C38A, I49M, K53A, T63A, C76A, C127A) (ligand)
chain: B1 chain with V11I, C38A, I49M, A55S, T63A, C76A, C127A
As to B27, the “EC50, HEK-Blue IL18R reporter assay” value was found to be 0.07 pM.

B28: IL-18 polypeptide C157 (V11I, C38A, K53A, C76A, C127A, D132A) (ligand)
chain: B1 chain with K6E, V11I, C38A, A55S, C76A, C127A, D132A
Take B28: the “EC50, HEK-Blue IL18R reporter assay” value came out at 1.95 pM.

B29: IL-18 polypeptide of SEQ ID NO: 57 (E6K, C38S, K53A) (ligand)
chain: B1 chain with C38S, A55S
On to B29, for which the “EC50, HEK-Blue IL18R reporter assay” value was 0.86 pM and 0.53 pM.

B30: IL-18 polypeptide of SEQ ID NO: 54 (E06K, K53A, C38S, C68S, C76S, C127S, K70C) (ligand)
chain: B1 chain with C38S, A55S, C68S, K70C, C76S, C127S
On to B30, for which the “EC50, HEK-Blue IL18R reporter assay” value was found to be 9.12 pM.

B31: IL-18 polypeptide of SEQ ID NO: 50 (E06K, K53A, T63A) (ligand)
chain: B1 chain with A55S, T63A
In the case of B31, the “EC50, HEK-Blue IL18R reporter assay” value was determined as 1.77 pM.

B32: IL-18 polypeptide C168 (V11I, C38A, C76A, S105K, C127A) (ligand)
chain: B1 chain with K6E, V11I, C38A, A53K, A55S, C76A, S105K, C127A
B32: the “EC50, HEK-Blue IL18R reporter assay” value is 7.73 pM.

B33: IL-18 polypeptide of SEQ ID NO: 56 (E6K, K53A, C38S, C76S, C127S) (ligand)
chain: B1 chain with C38S, A55S, C76S, C127S
On to B33, for which the “EC50, HEK-Blue IL18R reporter assay” value is 3.73 pM.

B34: IL-18 polypeptide C150 (V11I, T34A, C38A, K53A, C76A, C127A) (ligand)
chain: B1 chain with K6E, V11I, T34A, C38A, A55S, C76A, C127A
Turning to B34, the “EC50, HEK-Blue IL18R reporter assay” value was 0.7 pM.

B35: IL-18 polypeptide C154 (V11I, E31A, D37A, C38A, K53A, C76A, C127A) (ligand)
chain: B1 chain with K6E, V11I, E31A, D37A, C38A, A55S, C76A, C127A
As for B35, the “EC50, HEK-Blue IL18R reporter assay” value amounted to 11.9 pM.

B36: IL-18 polypeptide C151 (V11I, D35A, C38A, K53A, C76A, C127A) (ligand)
chain: B1 chain with K6E, V11I, D35A, C38A, A55S, C76A, C127A
For B36, the “EC50, HEK-Blue IL18R reporter assay” value was 13.1 pM.

B37: IL-18 polypeptide C167 (V11I, C38A, C76A, S105I, C127A) (ligand)
chain: B1 chain with K6E, V11I, C38A, A53K, A55S, C76A, S105I, C127A
For the molecule B37, the “EC50, HEK-Blue IL18R reporter assay” value stood at 5.37 pM.

B38: IL-18 polypeptide C163 (V11I, C38A, C76A, Q103K, C127A) (ligand)
chain: B1 chain with K6E, V11I, C38A, A53K, A55S, C76A, Q103K, C127A
For B38, the “EC50, HEK-Blue IL18R reporter assay” value came to 1.5 pM.
